Molecular target: human UNC80 (uncoordinated 80; protein unc-80 homolog) (human) (UniProt Q8N2C7)
Experiment: cryo-EM structure, crossover interface

Chain of human UNC80 (uncoordinated 80; protein unc-80 homolog) (human) (Q8N2C7 whole entry): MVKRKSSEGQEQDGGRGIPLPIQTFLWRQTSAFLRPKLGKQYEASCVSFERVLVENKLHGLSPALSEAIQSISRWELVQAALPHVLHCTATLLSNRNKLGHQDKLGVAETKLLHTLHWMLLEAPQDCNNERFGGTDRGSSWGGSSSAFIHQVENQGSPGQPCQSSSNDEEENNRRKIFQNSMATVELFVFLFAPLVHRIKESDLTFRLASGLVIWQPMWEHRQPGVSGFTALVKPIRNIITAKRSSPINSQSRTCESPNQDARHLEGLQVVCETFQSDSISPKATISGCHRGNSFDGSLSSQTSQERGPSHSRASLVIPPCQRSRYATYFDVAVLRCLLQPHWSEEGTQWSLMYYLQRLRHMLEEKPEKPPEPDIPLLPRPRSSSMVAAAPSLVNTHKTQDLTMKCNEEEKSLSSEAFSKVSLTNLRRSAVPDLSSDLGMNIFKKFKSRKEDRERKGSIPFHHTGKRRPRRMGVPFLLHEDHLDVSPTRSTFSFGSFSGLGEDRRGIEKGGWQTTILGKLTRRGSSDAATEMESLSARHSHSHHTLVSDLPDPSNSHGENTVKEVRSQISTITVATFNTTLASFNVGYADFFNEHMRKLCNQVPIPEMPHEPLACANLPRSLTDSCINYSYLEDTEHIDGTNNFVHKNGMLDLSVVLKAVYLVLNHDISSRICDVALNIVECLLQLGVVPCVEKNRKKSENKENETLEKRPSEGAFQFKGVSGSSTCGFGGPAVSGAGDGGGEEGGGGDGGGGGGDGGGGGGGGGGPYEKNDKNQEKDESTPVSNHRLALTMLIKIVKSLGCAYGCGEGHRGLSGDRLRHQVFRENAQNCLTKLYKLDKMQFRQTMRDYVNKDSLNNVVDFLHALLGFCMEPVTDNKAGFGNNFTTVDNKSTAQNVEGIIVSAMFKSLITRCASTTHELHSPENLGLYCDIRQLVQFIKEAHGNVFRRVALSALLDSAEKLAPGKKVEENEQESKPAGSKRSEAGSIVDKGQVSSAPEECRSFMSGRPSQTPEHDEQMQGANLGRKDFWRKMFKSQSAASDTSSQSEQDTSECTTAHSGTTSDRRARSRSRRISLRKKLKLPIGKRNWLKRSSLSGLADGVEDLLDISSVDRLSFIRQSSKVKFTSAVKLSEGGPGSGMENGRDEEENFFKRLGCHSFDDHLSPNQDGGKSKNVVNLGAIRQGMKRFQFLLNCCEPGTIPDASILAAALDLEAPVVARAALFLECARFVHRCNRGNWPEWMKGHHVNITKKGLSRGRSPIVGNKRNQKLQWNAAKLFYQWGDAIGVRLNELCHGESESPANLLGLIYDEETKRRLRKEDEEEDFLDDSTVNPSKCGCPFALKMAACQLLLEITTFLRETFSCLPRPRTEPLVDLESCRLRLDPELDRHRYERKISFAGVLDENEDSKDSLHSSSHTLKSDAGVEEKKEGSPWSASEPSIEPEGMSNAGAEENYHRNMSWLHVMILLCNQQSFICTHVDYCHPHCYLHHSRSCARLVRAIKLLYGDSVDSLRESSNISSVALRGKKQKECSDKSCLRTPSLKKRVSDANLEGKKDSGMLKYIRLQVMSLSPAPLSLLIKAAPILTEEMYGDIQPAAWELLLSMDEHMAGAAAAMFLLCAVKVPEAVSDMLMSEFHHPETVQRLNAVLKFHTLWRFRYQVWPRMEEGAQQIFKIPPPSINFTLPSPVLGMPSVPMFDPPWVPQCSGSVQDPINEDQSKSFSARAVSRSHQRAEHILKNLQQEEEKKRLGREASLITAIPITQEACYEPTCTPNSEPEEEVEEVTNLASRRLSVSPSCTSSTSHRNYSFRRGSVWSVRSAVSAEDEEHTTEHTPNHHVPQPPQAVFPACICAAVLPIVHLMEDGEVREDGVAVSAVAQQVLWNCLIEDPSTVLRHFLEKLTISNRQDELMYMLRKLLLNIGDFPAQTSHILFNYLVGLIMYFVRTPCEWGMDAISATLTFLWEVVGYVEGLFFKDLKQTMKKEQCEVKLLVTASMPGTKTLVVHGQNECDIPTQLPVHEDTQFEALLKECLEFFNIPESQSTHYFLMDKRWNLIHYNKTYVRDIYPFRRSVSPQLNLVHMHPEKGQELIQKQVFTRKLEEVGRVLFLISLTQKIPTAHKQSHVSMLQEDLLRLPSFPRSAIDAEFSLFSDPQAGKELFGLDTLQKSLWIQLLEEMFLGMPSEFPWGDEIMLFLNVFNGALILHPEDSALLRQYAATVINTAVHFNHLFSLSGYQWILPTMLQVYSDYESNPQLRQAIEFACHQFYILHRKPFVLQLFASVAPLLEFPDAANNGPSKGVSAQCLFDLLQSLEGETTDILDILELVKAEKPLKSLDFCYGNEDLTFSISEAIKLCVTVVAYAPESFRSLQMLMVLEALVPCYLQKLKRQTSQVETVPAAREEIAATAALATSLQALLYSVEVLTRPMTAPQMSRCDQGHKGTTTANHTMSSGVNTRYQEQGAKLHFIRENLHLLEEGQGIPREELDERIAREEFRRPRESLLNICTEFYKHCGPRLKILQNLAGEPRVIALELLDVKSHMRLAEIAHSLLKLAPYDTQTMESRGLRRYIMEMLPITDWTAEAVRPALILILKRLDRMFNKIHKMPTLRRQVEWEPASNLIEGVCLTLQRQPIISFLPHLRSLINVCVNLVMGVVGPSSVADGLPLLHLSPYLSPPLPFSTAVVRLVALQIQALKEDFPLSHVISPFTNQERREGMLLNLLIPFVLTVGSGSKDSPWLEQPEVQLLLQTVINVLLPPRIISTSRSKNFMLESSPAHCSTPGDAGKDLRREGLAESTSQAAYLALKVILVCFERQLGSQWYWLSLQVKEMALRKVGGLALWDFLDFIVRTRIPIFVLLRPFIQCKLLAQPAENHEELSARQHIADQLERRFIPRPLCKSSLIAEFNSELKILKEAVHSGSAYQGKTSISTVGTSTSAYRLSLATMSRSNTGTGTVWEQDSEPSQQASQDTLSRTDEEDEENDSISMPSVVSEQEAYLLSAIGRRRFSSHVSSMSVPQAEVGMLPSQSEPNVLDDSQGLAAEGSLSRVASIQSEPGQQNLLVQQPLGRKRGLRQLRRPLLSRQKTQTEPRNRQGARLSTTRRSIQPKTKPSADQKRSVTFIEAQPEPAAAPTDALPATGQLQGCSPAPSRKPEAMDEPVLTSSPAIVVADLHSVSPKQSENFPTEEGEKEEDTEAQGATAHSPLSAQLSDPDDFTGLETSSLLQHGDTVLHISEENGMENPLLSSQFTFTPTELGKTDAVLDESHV

buried solvent accessible surface area (crossover interface): 3000 A2
Substance: human UNC79 (uncoordinated 79; protein unc-79 homolog), Q9P2D8 1-2635

— patent US20240295565A1 (Genentech, published 2024)
